According to patent US20240101668A1:
Numbering of substitutions follows the chain as printed. Each block holds one binder with its values, some of them ahead of it.

What was measured:
[1] = target: huFLT3-M227 stably expressed on Ramos cells (human) (UniProt P36888); assay: FACS on cells
[2] = target: huFLT3-T227 stably expressed on Ramos cells (human) (UniProt P36888); assay: FACS on cells

B2: Polypeptide No. 277 (scFv, V domains shown)
VH: QVQLVQSGAEVKKPGSSVKVSCKASGYTFTGYYMHWVRQAPGQGLEWMGWIDPNSGGTNYAQKFQGRVTITADESTSTAYMELSSLRSEDTAVYYCARDVDTAMVTDYWGRGTLVTVSS
VL: EIVMTQSPATLSVSPGERATLSCRASQSVDNLVGWYQQKPGQAPRLLIYDISSRATGIPARFSGSGSGTEFTLTISSLQSEDFAVYYCQQYGRSPITFGQGTRLEIKR
FACS geometric mean fold change over Jurkat parental [1]: < 2 fold | FACS geometric mean fold change over Jurkat parental [2]: < 2 fold

B4: Polypeptide No. 264 (scFv, V domains shown)
VH: QVQLVQSGAEVKKPGSSVKVSCKASGYTLTELSMHWVRQAPGQGLEWMGGIIPISSATSIPQKFQGRVTITADESTSTAYMELSSLRSEDTAVYYCARGALYSSSPVRVVAGTKGWFDPWGQGTLVTVSS
VL: DIQMTQSPSSLSASVGDRVTITCRASQDISNYLAWYQQKPGKAPKLLIYAASSLQSGVPSRFSGSGSGTDFTLTISSLQPEDFATYYCQQYYSYPLTFGGGTKVEIKR
FACS geometric mean fold change over Jurkat parental [1]: < 2 fold | FACS geometric mean fold change over Jurkat parental [2]: < 2 fold

B6: Polypeptide No. 267 (scFv, V domains shown)
VH: QVQLVQSGAEVKKPGSSVKVSCKASGYTLTSFGISWVRQAPGQGLEWVGMIIPLSGTTHYAQKFQGRVTITADESTSTAYMELSSLRSEDTAVYYCANLYGGNAYYYYGMDVWGQGTTVTVSS
VL: B4 VL with Y32F, L33V, Y91S, Y92F, S93D, Y94T, L96Y, G100Q, V104L
FACS geometric mean fold change over Jurkat parental [1]: < 2 fold | FACS geometric mean fold change over Jurkat parental [2]: < 2 fold

B8: Polypeptide No. 266 (scFv, V domains shown)
VH: QVQLVQSGAEVKKPGSSVKVSCKASGYSLTELSIHWVRQAPGQGLEWMGGINPISGTANYAQKFQGRVTITADESTSTAYMELSSLRSEDTAVYYCARGTVRLNWFDPWGQGTLVTVSS
VL: EIVMTQSPATLSVSPGERATLSCRASQSVGSQLGWYQQKPGQAPRLLIYGASTRATGIPARFSGSGSGTEFTLTISSLQSEDFAVYYCQQSFSTPLTFGGGTKVEIKR
FACS geometric mean fold change over Jurkat parental [1]: < 2 fold | FACS geometric mean fold change over Jurkat parental [2]: < 2 fold

Other lines, results leading:

FACS geometric mean fold change over Jurkat parental [1]: < 2 fold | FACS geometric mean fold change over Jurkat parental [2]: < 2 fold
B1: Polypeptide No. 289 (scFv, V domains shown)
VH: QVQLVQSGAEVKKPGASVKVSCKASGYTFTSYGISWVRQAPGQGLEWMGWMNPISGNTDYAPNFQGRVTMTRDTSTSTVYMELSSLRSEDTAVYYCVVERRREVGMDVWGQGTTVTVSS
VL: B4 VL with R24Q, D28G, S30T, N31S, A34N, A50K, Q55E, Y91G, Y94T

FACS geometric mean fold change over Jurkat parental [1]: < 2 fold | FACS geometric mean fold change over Jurkat parental [2]: < 2 fold
B3: Polypeptide No. 258 (scFv, V domains shown)
VH: QVQLVQSGAEVKKPGASVKVSCKASGGTFGSYAISWVRQAPGQGLEWMGWINPNTGGAHYAQKFQGRVTMTRDTSTSTVYMELSSLRSEDTAVYYCARVGAAAGYQHWGQGTLVTVSS
VL: B4 VL with D28S, S30K, N31G, Y32A, A50S, S53N, Y92N

FACS geometric mean fold change over Jurkat parental [1]: < 2 fold | FACS geometric mean fold change over Jurkat parental [2]: < 2 fold
B5: Polypeptide No. 255 (scFv, V domains shown)
VH: QVQLVQSGAEVKKPGSSVKVSCKASGYTLTELSMHWVRQAPGQGLEWMGGIIPISGTVTYAQKFQGRVTITADESTSTAYMELSSLRSEDTAVYYCANKGQQLVRGYFQHWGQGTLVTVSS
VL: DIQMTQSPSSLSASVGDRVTITCQASHDIRNSVNWYQQKPGKAPKLLIYATSSLQSGVPSRFSGSGSGTDFTLTISSLQPEDFATYYCQQSYNTPFTFGQGTKLEIKR

FACS geometric mean fold change over Jurkat parental [1]: < 2 fold | FACS geometric mean fold change over Jurkat parental [2]: < 2 fold
B7: Polypeptide No. 251 (scFv, V domains shown)
VH: QVQLVQSGAEVKKPGSSVKVSCKASGGTFSSDAINWVRQAPGQGLEWMGGIIPIVGTPTYAQKFQGRVTITADESTSTAYMELSSLRSEDTAVYYCAKGLAFGVFDGLDVWGQGTTVTVSS
VL: EIVMTQSPATLSVSPGERATLSCRASQSVSSNYLAWYQQKPGQAPRLLIYDVSTRATGIPARFSGSGSGTEFTLTISSLQSEDFAVYYCQQYGSSTLTFGGGTKVEIKR
